This data set can be described thus: yeast display, Sf9 membrane polyspecificity reagent, FACS + sequencing; frameworks hold sequencing errors. The method, boiled down: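 Genes from sorted yeast were amplified by colony PCR, read by MiSeq 2 × 250 sequencing and filtered on CDR length. These cells carried a synthetic nanobody library in Saccharomyces cerevisiae BJ5465 and were sorted by FACS into low and high (top ~1%) gates on anti-HA and streptavidin fluorescence. Polyreactivity is labelled according to the gate of origin.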
With “QVQLLESGGGLVQAGGSLRLSCAASGSIFANNAMGWYRQSPGKEREMVAAIDWSAASTYYADSVKGRFTISRDNAKNTVYLQMNSLKPEDTAVYYWNRRGSGGESYRTTTGALGYWGQGTQVTVSS”, the “polyreactivity (PSR sort gate)” value is “low polyreactivity”. For the sequence “QVQLLESGGGLVQAGGSLRLSCAASGSIFATYAMGWYRQAPGKERELVAAISSSGARTYYADSVKGRFTISRDNAKNTVYLQMNSLKPEDTAVYYCNADLYSYFWRVRYGLDYWGQGTQVTVSS”, the “polyreactivity (PSR sort gate)” value is on record as “high polyreactivity”. As for “QVQLLESGGGLVQAGGSLRLSCAASGSIFDPYAMGWYRQAPGKERELVAVINDGGRTTYADSVKGRFTISRDNAKNTVYLQMNRLKPEDTAVYYCAATSYFSRWDLYGYWGQGTQVTVSS”, the “polyreactivity (PSR sort gate)” value was “low polyreactivity”. Consider “QVQLLESGGGLVQAGGSLRLSCAASGSIFGLYAMGWYRQAPGKERELVAAISPRGGSTYYADSVKGRFTISRDNAKNTVYLQMNSLKPEDTAVYYCNRDYIRYALGHDYWGQGTQVTVSS”, for which the “polyreactivity (PSR sort gate)” value was “high polyreactivity”. Take “QVQLLESGGGLVQAGGSLRLSCAASGSIFTEYAMGWYRQAPGKERELVAAITYSGGSTYYADSVKGRFTISRDNAKNTVYLQMHSLKPDDTAVYYCNADYRIYVAYYYWGQGTQVTVSS”: the “polyreactivity (PSR sort gate)” value was “low polyreactivity”. With “QVQLLESGGGLVQAGGSLRLSCAASGSTFGYYAMGWYRQAPGKERELVAAITRSGSSTYYADSVKGRFTISRDNAKNTVYLQMNSLKPEDTAVYYCAAEARYWIYEYDYWGQGTQVTGSS”, the “polyreactivity (PSR sort gate)” value was “high polyreactivity”.

“QVQLLESGGGLVQAGGSLRLSCAASGSTFPRNAMGWYRQAPGKERELVATITSSGGGTYYADSVKGRFTISRDNAKNTVYLQMNSLKPEDTAVDYCNADGPAGDAFDYWGQGTQVTVSS”: the “polyreactivity (PSR sort gate)” value is “low polyreactivity”. With “QVQLLESGGGLVQAGGSLRLSCAASGSTIRVNGMGWYRQAPGKERELVAVISWSGGSTYYADSVKGRFTISRDNAKNTVYLQMNSLKPEDTAVYYCNKLIYDEDEYWGQGTQVSVSS”, the “polyreactivity (PSR sort gate)” value was “high polyreactivity”. In the case of “QVQLLESGGGLVQAGGSLRLSCAASGYTFKAYAMGWYRQAPGKERELVAAISRGGRTNYADSVKGRFTISRDNAKYTVYLQMNSLKPEDTAVYYCNTQRQLGERFYDRSRQGDYWGHGTQVTVSS”, the “polyreactivity (PSR sort gate)” value is “high polyreactivity”. As for “QVQLLESGGGLVQAGGSLRLSCAASGYTFRFNAMGWNRQAPGKETEFVAAIDFGGAGTYYADSVKGRFTISRDNAKNTVYLQMNSLKPEDTAVYYCNARDGVTTEFDYWGQVTQVTVSS”, the “polyreactivity (PSR sort gate)” value is on record as “low polyreactivity”. Turning to “QVQLLESGGGLVQAGGSLRLSCAAYGSTFGYNDMGWYRQAPGKVRELVAAITRRSGSTYYADSVKGRFTISRDNAKNSVNLQMNSLKPEDTAVYYCAASYHYGDRWPIRMDYWGQGTQVTVSS”, the “polyreactivity (PSR sort gate)” value is recorded as “low polyreactivity”. For the sequence “QVQLLESGGGLVQAGGSLRLTCAASGSTFKRYAMGWYRQAPGKERELVAAITTSGGSTYYADSVKGRFTISRDNAKNTVYLQMNSLEPEDTAVYYCAAVWPGRRTTNYYFPGHGYQYGYWGQGTQVTVSS”, the “polyreactivity (PSR sort gate)” value is listed as “high polyreactivity”. As for “QVQLLESGGGLVQAGGSLRLTCAASGSTFSPNAMGWYRQAPGKERELVAAITYRGANTYYADSVKGRFTISRDNAKITVYLQMNSLKPEDTAVYYCDAEYAYHHVGFGYWGQGTQVTVSS”, the “polyreactivity (PSR sort gate)” value is given as “low polyreactivity”.

Regarding “QVQLLESGGGLVQAGGSVRLSCAASGFTYRYYAMGWYRQEPGKERELVASISFSGTRTYYADSVKGRFTISRDNAKNTVFLQMNSLKPHDTAVDYCNACLYSRYEFDYWGQGSQVTVSS”, the “polyreactivity (PSR sort gate)” value is given as “high polyreactivity”. Turning to “QVQLLESGGGLVQAGGTLRLSCAASGITFTVYTMGWYRQAPGKERELVAAIDSDGITNYADSVKGRFTISRDNAKNTVYLQMNSLKPEDTAVYYCAKQSGRADGVSGFDYWGQGTQVTVSS”, the “polyreactivity (PSR sort gate)” value was “low polyreactivity”. Consider “QVQLLESGGGLVQAGGTLRLSCAASGRISWYNAMGWYRQAPGKERELVAAIRGGGSTHYADSVKGRFTISRDNAKNTVYLQMNSLKPEDTAVYYCAAYLYYPFYWWRDYWGQGTQVTVSS”, for which the “polyreactivity (PSR sort gate)” value is “high polyreactivity”. For “QVQLLESGGGLVQAGRSLRLSCAASGSIFWYAMGWYRQAPGKERELVATITSGASTTYADSVKGRFTISRDNAKNTVYLQMNSLNPEDTAVYYCAKRNYLSYRYDYWGQGTQVNVSS”, the “polyreactivity (PSR sort gate)” value is reported as “low polyreactivity”. Turning to “QVQLLESGGGLVQARGSLRLSCAASGRILEGYAMGWYRPAPGKERELVAALSFSTTPTYYADSVKGRFTISRDNAKNTVYLQMYSLKPEDTAVDYCAADSQQSDYDYWGQGSQVTVSS”, the “polyreactivity (PSR sort gate)” value was “high polyreactivity”. As to “QVQLLESGGGLVQARGSLRLSCAASGRNFVPYVMGWYRQAPGKERELVASISDSDTSTYYADSVKGRFTISRDNAKNTVYLQMNSLKPEDTAVYYCNVDYWGQGTQVTVSS”, the “polyreactivity (PSR sort gate)” value is on record as “low polyreactivity”. On to “QVQLLESGVGLVQAGGTLRLSCAASGRTFYRNAMGWYRQATGKEREMVAAISQSGGSTYYADSVKGRFTISRDNAKNTVYLQMNSLKPEDTAVYYCAAGNSRRVGMDYWGQGTQVTVSS”, for which the “polyreactivity (PSR sort gate)” value is on record as “high polyreactivity”. “QVQLLESWGGLVHAGGSLRLSCAASGRIIYRYAMGWSRQAPGNERELVAGISNAGGSTYYADSVKGRFTISRDNAKNTVYLQMNSLKPEDTAVYYCATGPSYRYDKGGGRSRYYYWGQGTQVTVSS”: the “polyreactivity (PSR sort gate)” value is recorded as “high polyreactivity”. With “QVQLLESWGGLVQAGGSLRLSCAASGRTSTRNAMGWSRQAPGKERELVAAISWSGGRTHYADSVKWRFTISRDNAMNYVYYQMNSLKQEATAVYYCAAAYTGGQYYYSWGQGTQVSVSS”, the “polyreactivity (PSR sort gate)” value is listed as “high polyreactivity”. As for “QVQLLETGAGLVHAGGSLRLSCAAYGFIFRDYAMGCYRQAPGKERELVAAIYYSGGSTYYADSVKGRFTISRDNAKNTVYLQLNSLKPEDTAVYYCNAVNPYYAPTDRRVGYDYWGQGTQVTVSS”, the “polyreactivity (PSR sort gate)” value was “high polyreactivity”. On to “QVQLLETGRGLVQAGGSLRLSCASSGSIFFLYAMGWYRQAPGKERELVAAINWRTGRTYYADSVKWRFTISRDNAKNTVYFQMNSLKPEDTEVYYCAARSVPSPERGFYYWGQGTQVTVSS”, for which the “polyreactivity (PSR sort gate)” value is on record as “high polyreactivity”. As to “QVQLQDSGGGLVQAGGSLRQNCETSGTIFVLWYMGWYRQAPGKERELVATINDGANTYYADSVKGRFTINRDNANSTVYMKMNSLIPEDTAVYYCAVYAIIVWGLGYWGQGTQVTVSS”, the “polyreactivity (PSR sort gate)” value is on record as “high polyreactivity”. “QVQLQECGGGLVQAGGSLRLSCAASGTFSNSVKWLYCHAPGKEREFVATIGVGGSTNYADSVKGRFTISRDNAKYTVYLQMNSLKPEDTAVYHCAAYGAASNFHYYRGQGTQVTVSS”: the “polyreactivity (PSR sort gate)” value is “low polyreactivity”. As for “QVQLQECGGGLVQAGGSLRLSCAASGTFSNSVKWLYCQAPGKEREFVATIGVGGSTNYADSVIGRFTISRDNAKNTVYLQMNSRKQEDTAVYHCAAYGAASNFHYYRGQGTQVTVSS”, the “polyreactivity (PSR sort gate)” value is “low polyreactivity”. As to “QVQLQEGGGGLVQAGVSLRLSCAASGYISYGDVMGWNRQAPGEERELVASIGLDATTNYADSVKGRFTISRDNAKISVYLQMNSLKPEATAVYYCAADVGSGVLCGYWGQGTQMTVSS”, the “polyreactivity (PSR sort gate)” value is listed as “high polyreactivity”.

As for “QVQLQEIGGSLVQAGGSLRLSGAASGNILVLPPGQVSPGAERELDATITGGSITYYADSVKGRFTISRDNAKNTVYLQMNSLKPEDTAVYYCAAVSLRKSYGYNYWGQGTLVTVSS”, the “polyreactivity (PSR sort gate)” value was “high polyreactivity”. In the case of “QVQLQERAGGLVQAGGSLRQRCSASGYISCDASMGWYRQAPGKERELAASITKGSSTKYADIVKGRFTFRDNAKNTVYLKMNSLKPEDTAVCYCAVTYPYWGDYTYWGQGTQVTVSS”, the “polyreactivity (PSR sort gate)” value is “low polyreactivity”. For “QVQLQERAGGLVQAGGSLRQSCAASGYRSLAQTIGWYRQAPGKEREFVASIALGSSTYYTDSVKGSFTISRDNAKTTVYLQMNSLKPEATAVYYCNARDDVYLITPYFLVYVNLDYWGQGTQVTVSS”, the “polyreactivity (PSR sort gate)” value was “low polyreactivity”. Regarding “QVQLQERGGGLVQAGASLRQSCAASGTIFTARFMGWYRQAPGKERELVATITDGGNTNDADSVKGRFTSSRDNAKITVYLQMNSLKPEYAAVYYCAAGEVDNDTLLYWGQGSQVTVSS”, the “polyreactivity (PSR sort gate)” value is given as “low polyreactivity”. For “QVQLQERGGGLVQAGGSLRLSCAASGSIFQYTLMGWYLQAPGKEREFVAAITDGANTNYADSVKGRFSISRDNAKNTVNLQMNSLKPEETAVYYCATDYGYTDRVTSGFDYWGLGTQVTVSS”, the “polyreactivity (PSR sort gate)” value is listed as “low polyreactivity”. In the case of “QVQLQESAGGLVQAGGSLRLRCSASGYISCDASMGWYRQAPGKERELAASITKGSSTNYADSVKGRFTIRDNAKNTVYLQMNSLKPEDTSVCYCAVTYPYWGDYTYWGQGTQVTVSS”, the “polyreactivity (PSR sort gate)” value is “low polyreactivity”. On to “QVQLQESAGGLVQAGGSLRQSCEASGYIIPYYSMGWYRQSPGKERGLVACIAAGTTTNYADSVNGRFTISRDNEKNTVYLQMNSLNPEDAAVYFCAALNAFNTGHWYWGQGTQVTVSS”, for which the “polyreactivity (PSR sort gate)” value is given as “low polyreactivity”. With “QVQLQESCGGLVQAGGCLRLSCAASGTIFDPDYMGWYHQAPCKERELVASISLGRITYYADSVKGRFTINRDNAKNTVYLQMNSLKPEDTAVYYCAVRVETIYYYSYWGQGTQVTVRS”, the “polyreactivity (PSR sort gate)” value is “high polyreactivity”. As to “QVQLQESDGGLVQAGGSLRLTCAASGSISPQYYMGWYRQAPGQEREFVAISKGTTTYYADSVKGRLTISRVNAKNTVYLQMNSLKPEDTAVYCCAAGRWLQKVHAYWDQGTQVTVSS”, the “polyreactivity (PSR sort gate)” value was “low polyreactivity”. As to “QVQLQESGACLVLAGGSLRMSCASSGYIFDTCPMGGYRQAPGKEREFVASIDHGSNTYYADSVKGRFTISRDSAKNTVYLQLNSLKPEDTAVYYCAVRDDGSYTYGNWGQGTQVSVSS”, the “polyreactivity (PSR sort gate)” value was “high polyreactivity”. Consider “QVQLQESGAGLDQAGGSLRLSCAPSGYISDIGTMGWYRQAPGKEREFVATIVVGSTTNYADSVKGRFTISRDNAKNTVYLQPESGRYRGVVLRGWLLAVGKFTYWGQGTQETVSS”, for which the “polyreactivity (PSR sort gate)” value is listed as “low polyreactivity”. Consider “QVQLQESGAGLEQAGGSLRMSCAASGYISDIVTMGWYRQAPGKEREFVATIVVGSTTNYADSVKGRFTISRDNANNSVYLQPESGRYRGVLLRGWLLAVGKFTYWGQGTQETVSS”, for which the “polyreactivity (PSR sort gate)” value is “low polyreactivity”.

As for “QVQLQESGCGLVQAGGSLRLSCAASGDIIEADDMGWYRQAPGKERELVASITDGGSTNCADSMKGRSTICRDNAKITVYLQMNSLKLEDTAVYYCAAIAYPDVPTYFDYDSDYFYWGQGTLVTVSS”, the “polyreactivity (PSR sort gate)” value is on record as “high polyreactivity”.

Values taken from the nanobody polyreactivity screen of Harvey et al. (2022).
